Measured values: patent US20230192878A1, “METHODS, THERAPIES AND USES FOR TREATING CANCER” (PFIZER INC., priority 2020, published 2023)

Assays:
[1] = First in human Phase 1 clinical study: safety (CRS, DLT); format: in vivo
Excerpt: This Example illustrates an ongoing Phase 1 open-label, multicenter clinical study of PF-06863135 (BCMAxCD3 bispecific) as monotherapy and in combination with sasanlimab, lenalidomide or pomalidomide, in adult patients with advanced multiple myeloma who have relapsed from or are refractory to standard therapy. The study has been registered on ClinicalTrials.gov with identifier NCT03269136 and was first posted August 2017. Study results for Part 1 of the trial and additional arms for the study are described in this Example.
Part 1 of the Study is the […] single agent dose escalation arm at the dose levels of 0.1, 0.3, 1, 3, 10, 30, and 50 μg/kg Q1W by intravenous (IV) administration, and at the dose levels of 80, 130, 215, 360, 600 and 1000 μg/kg Q1W by subcutaneous (SC) administration. Upon reaching maximum tolerated dose (MTD)/maximum administered dose (MAD), patients can be treated at a dose level selected from the foregoing dose levels described in this paragraph, and below the MTD/MAD fora Q2W administration, both IV and SC, to further support the recommended phase 2 dose (RP2D) decision. For the study, dose limiting toxicity observation period is set at 21 days for Q1W dosing and 28 days for Q2W dosing. The treatment cycle, aka cycle, for Q1W dosing would be 3 weeks, and for Q2W dosing would be four weeks.
Clinical Outcome of Part 1 of the Study. As of 15 Apr. 2020, a total of 23 patients were enrolled in Part 1 of the study and had been treated with PF-06863135 administered intravenously (IV) at 0.1 (N=2), 0.3 (N=3), 1 (N=2), 3 (N=3), 10 (N=2), 30 (N=5), and 50 (N=6) μg/kg. As of Aug. 21, 2020, a total of 30 patients were enrolled in Part 1 of the study and had been treated with PF-06863135 administered subcutaneously (SC) at 80 (N=6), 130 (N=4), 215 (N=4), 360 (N=4), 600 (N=6) and 1000 (N=6) μg/kg. Safety and efficacy data were available for in 23 IV and 30 SC treated patients per IMWG (International Myeloma Working Group) criteria.
Part 1.1 of the Study is an alternative maintenance dose escalation arm for single agent PF-06863135. If excessive toxicity occurs or the maximum tolerated dose (MTD)/maximum administered dose (MAD) is reached at a dose level that is earlier than desired in Part 1 of the study described above, a priming dose will be administered one week prior to the day 1 cycle 1 administration of the dose (maintenance dose) at this dose level and for all subsequent dose levels in the dose escalation that may be initiated for Part 1.1. The priming dosing will be at a lower dose level than the maintenance dose.

Molp8 = assay: Cell surface BCMA expression after GSI, concentration series; format: cell-based; conditions: 24 hours
Method: (§1) Multiple myeloma cells (MM.1S, OPM2, H929, Molp8, RPMI8226) were seeded in a 96-well U bottom plate at 40,000 cells/well. Cells were incubated for 24 hours in the presence of GSI diluted in RPMI (0.1% DMSO). The following concentrations of the GSI were tested: 1000 nM, 500 nM, 100 nM, 50 nM, 25 nM, 10 nM, 5 nM, 2.5 nM, 1 nM, 0.1 nM, 0.01 nM. 24 hours later cells were collected and washed with PBS+2% FBS, followed by staining with ZombieNIR Viability Dye (Biolegend) at 1 in 500 dilution in PBS at room temperature for 20 minutes. Next, cells were washed with PBS+2% FBS and stained with anti-BCMA PE-labelled antibody (Biolegend) diluted in PBS+2% FBS for 30 minutes at 4° C. Cells were acquired on BD Flow Cytometer and analyzed using FlowJo flow cytometry analysis software. Dead cells were removed from analysis by gating on ZombieNIR negative population. BCMA mean fluorescence intensity (MFI) was plotted against GSI concentration to establish EC50.

H929 = assay: as above; format: cell-based; conditions: 24 hours
Method: as §1

OPM2 = assay: as above; format: cell-based; conditions: 24 hours
Method: as §1

[2] = 600 μg/kg priming, 1000 μg/kg Q1W or Q2W SC, N = 20

PF-06863135: heterodimeric humanized full-length bispecific antibody with one BCMA binding arm and one CD3 binding arm
CRS observed, patient(s) ([1]; 10 μg/kg IV cohort): 1 (50.0%)
CRS observed, patient(s) ([1]; 30 μg/kg IV cohort): 4 (80.0%)
Patients who experienced dose limiting toxicities (DLTs) ([1]; 30 μg/kg IV cohort): 1 patient
Patients in whom CRS also occurred after later doses (second to fourth) ([1]; 50 μg/kg IV): 3 patients
CRS observed, patient(s) ([1]; 50 μg/kg IV cohort): 6 (100.0%)
Patients who experienced dose limiting toxicities (DLTs) ([1]; 50 μg/kg IV cohort): 1 patient
CRS Grade 1 (patients) ([1]; 80 μg/kg Q1W SC, N = 6): 2
CRS Grade 2 (patients) ([1]; 80 μg/kg Q1W SC, N = 6): 1
CRS Mean duration ([1]; 80 μg/kg Q1W SC, N = 6): 1 days
Patients with CRS ([1]; 80 μg/kg Q1W SC, N = 6): 3 (50%)
CRS Grade 1 (patients) ([1]; 130 μg/kg Q1W SC, N = 4): 2
CRS Grade 2 (patients) ([1]; 130 μg/kg Q1W SC, N = 4): 0
CRS Mean duration ([1]; 130 μg/kg Q1W SC, N = 4): 3 days
Patients with CRS ([1]; 130 μg/kg Q1W SC, N = 4): 2 (50%)
CRS Grade 1 (patients) ([1]; 215 μg/kg Q1W SC, N = 4): 3
CRS Grade 2 (patients) ([1]; 215 μg/kg Q1W SC, N = 4): 0
CRS Mean duration ([1]; 215 μg/kg Q1W SC, N = 4): 3 days
Patients with CRS ([1]; 215 μg/kg Q1W SC, N = 4): 3 (75%)
CRS Grade 1 (patients) ([1]; 360 μg/kg Q1W SC, N = 4): 2
CRS Grade 2 (patients) ([1]; 360 μg/kg Q1W SC, N = 4): 1
CRS Mean duration ([1]; 360 μg/kg Q1W SC, N = 4): 1.7 days
Patients with CRS ([1]; 360 μg/kg Q1W SC, N = 4): 3 (75%)
CRS Grade 1 (patients) ([1]; 600 μg/kg Q1W SC, N = 6): 4
CRS Grade 2 (patients) ([1]; 600 μg/kg Q1W SC, N = 6): 2
CRS Mean duration ([1]; 600 μg/kg Q1W SC, N = 6): 1.7 days
Patients with CRS ([1]; 600 μg/kg Q1W SC, N = 6): 6 (100%)
Decrease of medium duration of CRS by introducing priming dose ([1]; 600 μg/kg priming then 1000 μg/kg vs 1000 μg/kg without priming, SC): 50%
CRS Grade 1 (patients) [1, 2]: 11
CRS Grade 2 (patients) [1, 2]: 9
CRS Mean duration [1, 2]: 2 days
Patients with CRS [1, 2]: 20 (100%)
CRS Grade 1 (patients) ([1]; 1000 μg/kg Q1W SC, N = 6): 5
CRS Grade 2 (patients) ([1]; 1000 μg/kg Q1W SC, N = 6): 1
CRS Mean duration ([1]; 1000 μg/kg Q1W SC, N = 6): 4 days
Patients with CRS ([1]; 1000 μg/kg Q1W SC, N = 6): 6 (100%)
Patients who experienced dose limiting toxicities (DLTs) ([1]; IV cohorts, 23 patients, febrile neutropenia Grade 3 and electrocardiogram QT prolongation Grade 1): 2 patients
CRS onset after dosing ([1]; IV cohorts, each of the 11 patients with CRS): ≤ 2 days
Impact of dose frequency (Q1W v. Q2W) on the CRS ([1]; Part 1.1, 600 μg/kg priming, 1000 μg/kg SC): no impact
Patients who experienced dose limiting toxicities (DLTs) ([1]; SC cohorts (80-1000 μg/kg)): No patients
CRS onset after dosing ([1]; SC cohorts, primarily): ≤ 2 days
Patients who experienced maximum Grade 1 CRS ([1]; all IV treated patients): 6 (26.1%)
Patients who experienced maximum Grade 2 CRS ([1]; all IV treated patients): 5 (21.7%)
Patients who experienced maximum Grade 1 CRS ([1]; all SC treated patients): 18 (60.0%)
Patients who experienced maximum Grade 2 CRS ([1]; all SC treated patients): 5 (16.7%)
CRS severity in SC-treated vs IV-treated patients ([1]; despite higher overall dose exposure in SC-treated patients): less severe CRS
Toxicities ([1]; highest dose levels of 600 and 1000 μg/kg SC): tolerable and manageable

CCC[C@H](N[C@H]1CCc2cc(F)cc(F)c2C1)C(=O)Nc1cn(C(C)(C)CNCC(C)(C)C)cn1 [GSI, nirogacestat]
BCMA (-PE) MFI (Molp8; Molp8, GSI 0.01 nM): 1191.5
BCMA (-PE) MFI (Molp8; Molp8, GSI 0.1 nM): 1242.5
BCMA (-PE) MFI (Molp8; Molp8, GSI 1 nM): 1288.5
BCMA (-PE) MFI (Molp8; Molp8, GSI 2.5 nM): 1401
BCMA (-PE) MFI (Molp8; Molp8, GSI 5 nM): 1761.5
BCMA (-PE) MFI (Molp8; Molp8, GSI 10 nM): 2183.5
BCMA (-PE) MFI (Molp8; Molp8, GSI 25 nM): 3691
BCMA (-PE) MFI (Molp8; Molp8, GSI 50 nM): 5120
BCMA (-PE) MFI (Molp8; Molp8, GSI 100 nM): 5412
BCMA (-PE) MFI (Molp8; Molp8, GSI 500 nM): 5640.5
BCMA (-PE) MFI (Molp8; Molp8, GSI 1000 nM): 6401
BCMA (-PE) MFI (H929; H929, GSI 0.01 nM): 4824.5
BCMA (-PE) MFI (H929; H929, GSI 0.1 nM): 5305.5
BCMA (-PE) MFI (H929; H929, GSI 1 nM): 8615.5
BCMA (-PE) MFI (H929; H929, GSI 2.5 nM): 10344.5
BCMA (-PE) MFI (H929; H929, GSI 5 nM): 13226
BCMA (-PE) MFI (H929; H929, GSI 10 nM): 15670
BCMA (-PE) MFI (H929; H929, GSI 25 nM): 18445.5
BCMA (-PE) MFI (H929; H929, GSI 50 nM): 17424.5
BCMA (-PE) MFI (H929; H929, GSI 100 nM): 19455.5
BCMA (-PE) MFI (H929; H929, GSI 500 nM): 20285.5
BCMA (-PE) MFI (H929; H929, GSI 1000 nM): 21156
BCMA (-PE) MFI (OPM2; OPM2, GSI 0.01 nM): 2093.5
BCMA (-PE) MFI (OPM2; OPM2, GSI 0.1 nM): 2079.5
BCMA (-PE) MFI (OPM2; OPM2, GSI 1 nM): 2185
BCMA (-PE) MFI (OPM2; OPM2, GSI 2.5 nM): 2358.5
BCMA (-PE) MFI (OPM2; OPM2, GSI 5 nM): 2788.5
BCMA (-PE) MFI (OPM2; OPM2, GSI 10 nM): 3190.5
BCMA (-PE) MFI (OPM2; OPM2, GSI 25 nM): 6575.5
BCMA (-PE) MFI (OPM2; OPM2, GSI 50 nM): 10863
BCMA (-PE) MFI (OPM2; OPM2, GSI 100 nM): 14364
BCMA (-PE) MFI (OPM2; OPM2, GSI 500 nM): 15910.5
BCMA (-PE) MFI (OPM2; OPM2, GSI 1000 nM): 14747.5
